Test results as given in patent US20100093977A1.

Assays:
[1] = target: muc-1 on muc-1 positive human cancer cells (DU145; T47D) (human) (UniProt P15941); experiment: flow cytometry, dye labelled IgG on muc-1 positive T47D (printed T74D) cells
[2] = target: muc-1 on muc-1 positive human cancer cells (DU145; T47D) (human) (UniProt P15941); experiment: flow cytometry, dye labelled IgG on DU145 cells, higher dose range
[3] = target: muc-1 on muc-1 positive human cancer cells (DU145; T47D) (human) (UniProt P15941); experiment: flow cytometry, dye labelled IgG 0.2 to 200 nM on DU145 cells

Chain of UniProt P15941 (P15941 24-1255, stated change not applied): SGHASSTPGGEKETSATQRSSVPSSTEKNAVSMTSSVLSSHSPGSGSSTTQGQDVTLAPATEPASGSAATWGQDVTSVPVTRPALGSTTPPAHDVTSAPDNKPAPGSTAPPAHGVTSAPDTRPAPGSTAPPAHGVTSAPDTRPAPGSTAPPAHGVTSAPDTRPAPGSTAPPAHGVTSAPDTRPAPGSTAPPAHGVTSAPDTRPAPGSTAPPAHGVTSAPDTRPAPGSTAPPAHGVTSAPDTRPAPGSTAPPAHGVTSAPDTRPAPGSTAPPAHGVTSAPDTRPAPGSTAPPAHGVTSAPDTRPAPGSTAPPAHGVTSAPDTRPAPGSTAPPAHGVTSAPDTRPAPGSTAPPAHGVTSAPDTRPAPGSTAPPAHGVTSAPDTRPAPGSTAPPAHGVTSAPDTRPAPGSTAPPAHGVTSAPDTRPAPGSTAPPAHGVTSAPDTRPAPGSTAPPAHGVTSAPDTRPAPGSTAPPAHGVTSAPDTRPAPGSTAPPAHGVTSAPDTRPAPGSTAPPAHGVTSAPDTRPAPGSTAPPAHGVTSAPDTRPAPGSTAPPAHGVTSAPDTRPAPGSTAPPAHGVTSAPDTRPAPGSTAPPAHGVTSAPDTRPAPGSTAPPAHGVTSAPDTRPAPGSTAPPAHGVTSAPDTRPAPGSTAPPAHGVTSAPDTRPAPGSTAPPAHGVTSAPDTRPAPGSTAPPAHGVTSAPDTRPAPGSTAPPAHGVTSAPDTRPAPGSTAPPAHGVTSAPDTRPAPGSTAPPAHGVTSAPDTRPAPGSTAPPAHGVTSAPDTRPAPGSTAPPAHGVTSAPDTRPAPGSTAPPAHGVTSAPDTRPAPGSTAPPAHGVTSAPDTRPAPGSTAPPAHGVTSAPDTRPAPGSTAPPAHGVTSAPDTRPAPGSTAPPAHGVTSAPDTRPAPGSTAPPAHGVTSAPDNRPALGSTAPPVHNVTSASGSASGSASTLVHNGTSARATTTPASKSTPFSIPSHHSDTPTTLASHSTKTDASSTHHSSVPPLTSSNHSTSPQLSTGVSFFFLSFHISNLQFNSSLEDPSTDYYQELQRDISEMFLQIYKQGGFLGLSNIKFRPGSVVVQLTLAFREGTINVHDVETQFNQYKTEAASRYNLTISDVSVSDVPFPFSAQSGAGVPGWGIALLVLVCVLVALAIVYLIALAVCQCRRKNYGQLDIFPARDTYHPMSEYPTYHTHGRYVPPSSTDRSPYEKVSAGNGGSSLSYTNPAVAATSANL

Substance | IgG concentration at which binding plateaus [1] [nM] | further results
hCTM01 S171C mutant IgG reduced with 5 mM 2-ME and labelled with AlexaFluor488-C5-maleimide (approximately 4 dyes per IgG; 3.9 dyes per IgG in FIG. 4) (antibody) | > 100 | 
wild type CTM01 IgG labelled via lysine modification with AlexaFluor488-NHS ester (2 dyes per IgG) (antibody) |  | percent lower binding than kappa cys171-dye labelled S171C mutant IgG [2]: 8%
wild type CTM01 IgG labelled with AlexaFluor 488-C5-maleimide under identical conditions (0.7 dyes per IgG) (antibody) |  | fold lower degree of binding than the S171C mutant labelled via kappa cys171 [3]: 6 fold
wild type hCTM01 IgG reduced with 20 mM 2-ME and labelled with AlexaFluor488-C5-maleimide (approximately 4 dyes per IgG; 3.6 dyes per IgG in FIG. 4) (antibody) | 20 | 
